# Laboratory results from patent US9005962B2, “Regionalised endoderm cells and uses thereof” (The University Court of the University of Edinburgh, priority 2007, dated 2015).
# What was measured:
# [1] = tested on: Hex^RS ES cells; assay: ADE (H+C+) induction, serum-free suspension (aggregation) culture, flow cytometry; type: cell-based; settings: added during the first two days; serum-free, aggregation and monolayer (Table 7)
# Description: For ADE induction under serum-free conditions in suspension culture, ES cells were seeded onto non-coated 10 cm Petri dishes at 5×10^3 cells/ml in N2B27 culture medium supplemented with 10 ng/ml Bmp4 and 20 ng/ml activin A. Following 2 days of culture the resulting EBs were harvested as above and replated on non-coated Petri dishes at the same density in SF03 culture medium (ref Tada 2005) supplemented with 20 ng/ml activin A and 20 ng/ml EGF. The media was replaced 2 days later and then every 3 days for the duration of the experiment. For some experiments 10 ng/ml Fgf4 (R&D), 10 ng/ml Bmp4, 20 ng/ml Activin A, 1×10^−5M all-trans retinoic acid, 100 ng/ml PD173074 (Sigma), 20 ng/ml EGF and 3 μM CHIR99021 were added to the culture at the indicated timepoints.
# FITC-conjugated rat anti-CD184 (CXCR4), FITC-conjugated rat anti-CD31 and FITC conjugated rat anti-CD45 were purchased from BD Pharmingen. EBs generated under various different differentiation conditions were dissociated by treatment with cell dissociation buffer (PBS based) (GIBCO-BRL). Cells were washed in PBS supplemented with 10% FCS (FB) and resuspended at a maximum density of 5×10^6 cells/ml. For surface staining 200 μl of cells were plated in a V shape 96 well polystyrene plate (Sterilin) in PBS supplemented with 1% serum of the species in which the antibody was manufactured. The FITC-conjugated antibody or a FITC-conjugated isotype control was added at a 1:100 dilution. Cells were incubated in the dark for 20 mins, washed 3 times with FB and resuspended in FB supplemented with Topro3-iodide (Invitrogen) to exclude dead cell from the analysis. Cells were analysed using a FACS Calibur (BD Biosciences) or sorted using a MoFlo MLS flow cytometer (DakoCytomation). […]
# FITC-conjugated rat anti-CD184 (Cxcr4), FITC-conjugated rat anti-CD31 and FITC conjugated rat anti-CD45 were purchased from BD Pharmingen. […] Cells were analysed using a FACS Calibur (BD Biosciences) or sorted using a MoFlo MLS flow cytometer (DakoCytomation).
# [2] = tested on: Hex^RS ES cells; assay: ADE (H+C+) induction, serum-free adherent monolayer culture, flow cytometry, RT-PCR and immunostaining; type: cell-based; settings: monolayer culture
# Description: For ADE induction under serum-free conditions in adherent monolayer culture, ES cells were seeded onto gelatin coated 3 cm 6 well dishes (Iwaki) at a density of 1×10^4 cells/ml in N2B27 medium (StemCellSciences) supplemented with 10 ng/ml Bmp4, 20 ng/ml activin A and 10 ng/ml Fgf4. Following 2 days of culture the media was replaced with SF03 culture medium (Tada 2005) supplemented with 20 ng/ml activin A, 10 ng/ml Fgf4 and 20 ng/ml EGF. The media was replaced 2 days later and then every 3 days for the duration of the experiment. For some experiments 1×10^−5M all-trans retinoic acid, 100 ng/ml PD173074 and 3 μM CHIR99021 were added to the culture at the indicated timepoints.
# (§1) FITC-conjugated rat anti-CD184 (CXCR4), FITC-conjugated rat anti-CD31 and FITC conjugated rat anti-CD45 were purchased from BD Pharmingen. EBs generated under various different differentiation conditions were dissociated by treatment with cell dissociation buffer (PBS based) (GIBCO-BRL). Cells were washed in PBS supplemented with 10% FCS (FB) and resuspended at a maximum density of 5×10^6 cells/ml. For surface staining 200 μl of cells were plated in a V shape 96 well polystyrene plate (Sterilin) in PBS supplemented with 1% serum of the species in which the antibody was manufactured. The FITC-conjugated antibody or a FITC-conjugated isotype control was added at a 1:100 dilution. Cells were incubated in the dark for 20 mins, washed 3 times with FB and resuspended in FB supplemented with Topro3-iodide (Invitrogen) to exclude dead cell from the analysis. Cells were analysed using a FACS Calibur (BD Biosciences) or sorted using a MoFlo MLS flow cytometer (DakoCytomation).
# Total RNA was prepared from a minimum of 1×10^4 cells from sorted cell fractions, EBs, monolayer differentiated cells or ES cells using Trizol reagent (Invitrogen). 1 μg of RNA was used as a template for cDNA synthesis using Superscript III (Invitrogen). Real-time RT-PCR was performed using a LightCycler 480 (Roche) and LightCycler 480 SYBR Green 1 Master (Roche). The following cycling conditions were used: denaturation: 95° C. 5 sec, amplification: 95° C. 5 sec, 58° C. 10 sec, 72° C. 20 sec (45 cycles), 81° C. 1 sec, melt: 95° C. 1 sec, 65° C. 10 sec, 95° C. −ramp 5 C per sec continuous, cool: […] 10 sec. Standard curves were generated from plasmid. Samples were normalized to β-actin or TATA-box binding protein (TBP) expression levels.
# Sorted cells were seeded onto gelatin coated 24 well dishes (Iwaki). Adherence of cells to the substrate was enhanced by centrifugation at 1200 rpm for 3 mins. Sorted cells, monolayer differentiated cells and ES cells were washed in PBS, fixed in 4% paraformaldehyde for 10 mins and permeabilised by washing in PBS supplemented with 0.1% Triton X (PBST). Cells were treated with a blocking reagent (3% serum of same species as secondary antibody, 1% BSA in PBST) for 15 min before incubation with the primary antibody at 4° C. overnight. The cells were washed with PBST and incubated with the appropriate fluorescence-tagged secondary antibody for 2 hr at room temperature. The cells were washed with PBST and DAPI added during the final wash. The following primary antibodies were used, all are anti-mouse: anti-Oct3/4, anti-HNF-3β (Foxa2), anti-HNF-4α (Santa Cruz), anti-Cer11 (R&D), anti-E-cadherin (Takara Bio Inc) anti-alpha fetoprotein (NeoMarkers), anti-albumin (Bethyl laboratories inc). Anti-Pdx1 was a gift from P. Serup. […]
# (§2) FITC-conjugated rat anti-CD184 (Cxcr4), FITC-conjugated rat anti-CD31 and FITC conjugated rat anti-CD45 were purchased from BD Pharmingen. Cells were stained with Topro3-iodide (Invitrogen) to exclude dead cells from the analysis. Cells were analysed using a FACS Calibur (BD Biosciences) or sorted using a MoFlo MLS flow cytometer (DakoCytomation).
# [3] = tested on: Hex^RS ES cells; assay: ADE (H+C+) induction, two-step suspension (embryoid body) differentiation with serum day 0-2, flow cytometry for RS and Cxcr4; type: cell-based, mouse
# Description: ADE was induced under serum-containing conditions using a 2-step protocol. ES cells were seeded onto non-coated 10 cm petri dishes (sterilin) at a density of 5×10^3 cells/ml in Glasgow minimum essential medium (G-MEM; GIBCO-BRL) supplemented with 10% fetal calf serum (FCS), 0.1 mM nonessential amino acids (GIBCO-BRL), 1 mM sodium pyruvate, 2 mM glutamine and 0.1 mM 2-mercaptoethanol (2ME). Following 2 days of culture the resulting embryoid bodies (EBs) were harvested by centrifugation at 500 rpm for 1 min and replated on 10 cm non-coated petri dishes at the same density in N2B27 culture medium (StemCellSciences) supplemented with 20 ng/ml activin A (R&D). The media was replaced 2 days later and then every 3 days for the duration of the experiment. For some experiments 20 ng/ml EGF, 10 ng/ml Bmp4, 20 ng/ml activin A (R&D), 1×10^−5M all-trans retinoic acid (Sigma) and 3 μM CHIR99021 (a gift from StemCellSciences) were added to the culture at the indicated timepoints.
# as §1
# Mouse ES cells were cultured according to Li et al., (1995). ADE was induced under serum-containing conditions using a 2-step protocol. ES cells were seeded onto non-coated 10 cm petri dishes (Sterilin) at a density of 5×10^3 cells/ml in GMEM supplemented as described in Li et al., (1995) except in the absence of LIF. EBs were harvested after two days by centrifugation and replated in N2B27 medium (StemCellSciences) supplemented with 20 ng/ml activin A (R&D) and 20 ng/ml EGF (R&D). This media was replaced again two days later. 10 ng/ml BMP4, 20 ng/ml activin A (R&D) and 1×10^−5M all-trans retinoic acid (Sigma) were added where indicated.
# as §2
molecule,measurement,setting,value
"Bmp4: bone morphogenetic protein, 10 ng/ml (protein, UniProt P12644 293-408, looked up) Bone morphogenetic protein 4: SPKHHSQRARKKNKNCRRHSLYVDFSDVGWNDWIVAPPGYQAFYCHGDCPFPLADHLNSTNHAIVQTLVNSVNSSIPKACCVPTELSAISMLYLDEYDKVVLKNYQEMVVEGCGCR",total number of surviving cells at the end of the 7 day differentiation,[1],significantly increased
same,H+C+ percentage,[2],increased
same,induction of the RS positive population,[3]; added either at day 0 or day 3 (Table 2),completely blocked
same,CXCR4 induction,"[3]; added either at day 0 or day 3, data not shown",without effecting
